Reference: the supplement of paper PMC10724198
± gives the standard deviation of the averaged measurements.

How the values were obtained:
Saccharomyces cerevisiae [1] = assay: protein stability index of tFT-peptide fusion in wild type (PSI (0-1 scale)); higher = more stable (slower turnover); conditions: genetic background: wild type
Saccharomyces cerevisiae [2] = assay: protein stability index of tFT-peptide fusion in deletion strain of DOA10 (PSI (0-1 scale)); higher = more stable (slower turnover)
Procedure: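 MPS profiling in S. cerevisiae of two library types built from selected 12-aa C-degron peptides (IN1, IN2, LN1, LN3, VN2, R1-R5, W1-W3, Atg1 and Rpa12 C-termini): saturation mutagenesis libraries and C-terminal +1 capping libraries (13 aa). Each peptide is fused to the C-terminus of a sfGFP-mCherry timer, after a GGGS linker. Cells are FACS-sorted into 8 mCherry/sfGFP bins and sequenced. PSI runs from 0 (unstable) to 1 (stable), measured once in wild type and in the das1Δ or doa10Δ background.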

Saccharomyces cerevisiae [3] = assay: protein stability index of tFT-peptide fusion (C-terminal peptide) (PSI (0-1 scale)); higher = more stable (slower turnover)
Procedure: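 MPS profiling in S. cerevisiae of the tFT-X12 degron library: putative degron peptides plus stable controls, 12 aa, fused to the C-terminus of a sfGFP-mCherry timer. Cells are FACS-sorted into 8 mCherry/sfGFP bins and deep-sequenced. PSI runs from 0 (unstable) to 1 (stable). Backgrounds are wild type, das1Δ and doa10Δ at 30 °C, and wild type, das1Δ, cdc34-1 and cdc53-1 at 37 °C; 2-3 technical replicates each.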

Saccharomyces cerevisiae [4] = assay: protein stability index of tFT-peptide fusion in deletion strain of DAS1 (PSI (0-1 scale)); higher = more stable (slower turnover)
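For protein stability index of tFT-peptide fusion (C-terminal peptide) in this document: PSI is a weighted mean of sequencing reads over stability bins, variants kept only with over 10 reads, mCherry proximal and sfGFP distal, peptide attached via GGGS linker.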
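For protein stability index of tFT-peptide fusion in deletion strain of DAS1 in this document: PSI is a weighted mean of each variant's read distribution over the sorted stability bins, computed only for variants having over 10 reads in total.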
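For protein stability index of tFT-peptide fusion in deletion strain of DOA10 in this document: PSI per variant is the weighted mean of its sequencing read distribution over the sorted stability bins, counting only variants with over 10 reads summed across bins.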
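For protein stability index of tFT-peptide fusion in wild type in this document: PSI derived as read-weighted mean over the 8 sorting bins, only variants exceeding 10 total reads kept, mCherry placed adjacent to the peptide and sfGFP distal.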

Sequence	protein stability index (Saccharomyces cerevisiae [1])	protein stability index (Saccharomyces cerevisiae [2])	also measured
AFTLPMCPLLLR	0.171	0.653	–
AICLPMCPLLLR	0.224	0.632	–
AILLPMCPLLLR	0.281	0.612	–
AITLPMCALLLR	0.149	0.638	–
AITLPMCPLLKR	0.645	0.676	–
AITLPMCPLLLI	0.493	0.596	–
AITLPMCPLLLRD	0.422	0.65	–
AITLPMCPLLLV	0.349	0.417	–
AITLPMCPLLVR	0.181	0.231	–
AITLPMCPLTLR	0.363	0.672	–
AITLPMCQLLLR	0.174	0.663	–
AITLPMEPLLLR	0.441	0.67	–
AITLPMVPLLLR	0.153	0.622	–
AITLPNCPLLLR	0.337	0.682	–
AITLPSCPLLLR	0.304	0.669	–
AITVPMCPLLLR	0.299	0.656	–
ARWGVGLWRGAS	0.372	–	protein stability index (Saccharomyces cerevisiae [3]; genetic background: cdc34-1, temperature: 37 C): 0.664 ± 0.02; protein stability index (Saccharomyces cerevisiae [3]; genetic background: cdc53-1, temperature: 37 C): 0.756 ± 0.0077; protein stability index (Saccharomyces cerevisiae [3]; genetic background: das1 deletion, temperature: 30 C): 0.6508 ± 0.0062; protein stability index (Saccharomyces cerevisiae [3]; genetic background: das1 deletion, temperature: 37 C): 0.76494 ± 7.7e-05; protein stability index (Saccharomyces cerevisiae [3]; genetic background: doa10 deletion, temperature: 30 C): 0.282 ± 0.018; protein stability index (Saccharomyces cerevisiae [3]; genetic background: wild type, temperature: 30 C): 0.299 ± 0.029; protein stability index (Saccharomyces cerevisiae [3]; genetic background: wild type, temperature: 37 C): 0.618 ± 0.012; protein stability index (Saccharomyces cerevisiae [4]): 0.685
CKVSLPILLFFR	0.0542	0.621	–
CLASLPILLFFR	0.0826	0.626	–
CLHSLPILLFFR	0.0715	0.626	–
CLVRLPILLFFR	0.0563	0.595	–

Sequence	protein stability index (Saccharomyces cerevisiae [1])	protein stability index (Saccharomyces cerevisiae [2])	also measured
CLVSAPILLFFR	0.11	0.639	–
CLVSCPILLFFR	0.0926	0.578	–
CLVSGPILLFFR	0.217	0.631	–
CLVSIPILLFFR	0.057	0.556	–
CLVSLPILLFFRE	0.148	0.582	–
CLVSLPILLFFRN	0.0659	0.531	–
CLVSLPILLFMR	0.0691	0.56	–
CLVSLPILLMFR	0.0704	0.581	–
CLVSLPILLPFR	0.642	0.67	–
CLVSLPILLRFR	0.153	0.647	–
CLVSLPILMFFR	0.0684	0.591	–
CLVSLPILTFFR	0.523	0.643	–
CLVSLPNLLFFR	0.11	0.685	–
CQVSLPILLFFR	0.0497	0.631	–
GKYMCSVGCWFR	0.406	0.674	–
GLYICSVGCWFR	0.181	0.539	–
GLYLCSVGCWFR	0.21	0.575	–
GLYMCNVGCWFR	0.385	0.676	–
GLYMCPVGCWFR	0.26	0.664	–
GLYMCSFGCWFR	0.239	0.665	–
GLYMCSHGCWFR	0.435	0.695	–

Sequence	protein stability index (Saccharomyces cerevisiae [1])	protein stability index (Saccharomyces cerevisiae [2])	also measured
GLYMCSVCCWFR	0.47	0.548	–
GLYMCSVDCWFR	0.574	0.615	–
GLYMCSVGCWFF	0.473	0.532	–
GLYMCSVGCWFK	0.291	0.628	–
GLYMCSVGCWFRF	0.166	0.636	–
GLYMCSVGCWFRN	0.286	0.584	–
GLYMCSVGCWFS	0.381	0.445	–
GLYMCSVGCWVR	0.215	0.341	–
GLYMCSVGGWFR	0.644	0.674	–
GLYMCSVGHWFR	0.656	0.679	–
GLYMCSVGSWFR	0.634	0.69	–
GLYMCSVYCWFR	0.255	0.374	–
GLYMHSVGCWFR	0.255	0.706	–
GLYMLSVGCWFR	0.246	0.464	–
GSLRVLLPLYFR	0.242	0.685	–
HLYMCSVGCWFR	0.401	0.63	–
LLVSLPILLFFR	0.0951	0.561	–
PLVSLPILLFFR	0.138	0.661	–
TRWRVGLWRGAS	0.394	–	protein stability index (Saccharomyces cerevisiae [4]): 0.602
TTSCGYKFRTNN	0.255	–	protein stability index (Saccharomyces cerevisiae [4]): 0.677
VDGAVGGWRLVG	0.155	–	protein stability index (Saccharomyces cerevisiae [4]): 0.685

Sequence	protein stability index (Saccharomyces cerevisiae [1])	protein stability index (Saccharomyces cerevisiae [2])	also measured
VRCAVGGWRLVG	0.126	–	protein stability index (Saccharomyces cerevisiae [4]): 0.716
VRGAVGGARLVG	0.618	–	protein stability index (Saccharomyces cerevisiae [4]): 0.673
VRGAVGGKRLVG	0.649	–	protein stability index (Saccharomyces cerevisiae [4]): 0.677
VRGAVGGWALVG	0.438	–	protein stability index (Saccharomyces cerevisiae [4]): 0.667
VRGAVGGWRLCG	0.239	–	protein stability index (Saccharomyces cerevisiae [4]): 0.676
VRGAVGGWRLMG	0.177	–	protein stability index (Saccharomyces cerevisiae [4]): 0.66
VRGAVGGWRLVGE	0.612	–	protein stability index (Saccharomyces cerevisiae [4]): 0.66
VRGAVGGWRLVN	0.157	–	protein stability index (Saccharomyces cerevisiae [4]): 0.673
VRGAVGGWRLVQ	0.24	–	protein stability index (Saccharomyces cerevisiae [4]): 0.684
VRGAVGGWRLWG	0.534	–	protein stability index (Saccharomyces cerevisiae [4]): 0.717
VRGAVGGWRYVG	0.157	–	protein stability index (Saccharomyces cerevisiae [4]): 0.686
VRGAVGHWRLVG	0.157	–	protein stability index (Saccharomyces cerevisiae [4]): 0.678
VRGAVIGWRLVG	0.146	–	protein stability index (Saccharomyces cerevisiae [4]): 0.68
VRGAWGGWRLVG	0.147	–	protein stability index (Saccharomyces cerevisiae [4]): 0.692
VRPAVGGWRLVG	0.106	–	protein stability index (Saccharomyces cerevisiae [4]): 0.68
WSLAASFWRVVG	0.116	–	protein stability index (Saccharomyces cerevisiae [4]): 0.668
YKHKKGQKQKIN	0.176	–	protein stability index (Saccharomyces cerevisiae [4]): 0.607
YRWRVGLWRGAS	0.223	–	protein stability index (Saccharomyces cerevisiae [4]): 0.66
